According to the supplement of paper PMC7877785:
± gives the uncertainty stated by the source.

Test: self-splicing fitness, log relative to wild type (ln ratio); higher = more splicing; Tetrahymena group I intron in knt gene, E. coli kanamycin selection, DiMSum; sequences stand for … in CUCUCU…GGAGGGAAAAGUUAUCAGGCAUGCACCUGGUAGCUAGUCUUUAAACCAAUAGAUUGCAUCGGUUUAAAAGGCAAGACCGUCAAAUUGCGGGAAAGGGGUCAACAGCCGUUCAGUACCAAGUCUCAGGGGAAACUUUGAGAUGGCCUUGCAAAGGGUAUGGUAAUAAGCUGACGGACAUGGUCCUAACCACGCAGCCAAGUCCUAAGUCAACAGAUCUUCUGUUGAUAUGGAUGCAGUUCACAGACUAAAUGUCGGUCGGGGAAGAUGUAUUCUUCUCAUAAGAUAUAGUCGGACCUCUCCUUAAUGGGAGCUAGCGGAUGAAGUGAUGCAACACUGGAGCCGCUGGGAACUAAUUUGUAUGCGAAAGUAUAUUGAUUAGUUUUGGAGUACUCGUGGUCG
Method in brief: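 Colonies from six replicate transformations of E. coli BL21(DE3) were pooled and amplicon-sequenced on an Illumina HiSeq 2500. The library placed an intron with all eight P1ex-region nucleotides randomised inside the knt kanamycin-resistance gene on pET-22b(+), and cells grew overnight at 37°C or 30°C on LB agar with or without 25 μg/mL kanamycin (plus 100 μg/mL carbenicillin, 50 μM IPTG, 0.2% rhamnose). Fitness is the DiMSum error-weighted combination of wild-type-normalised replicate fold changes, kanamycin versus none.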

Sequence | self-splicing fitness (ln) (30 °C) | self-splicing fitness (ln) (37 °C)
GGGUAGCAAUAUUACGGGUA | -1.55 ± 0.28 | -1.1 ± 0.21
AGAGAGCAAUAUUACGCUUA | -2.39 ± 0.25 | -1.32 ± 0.23
CGAUAGCAAUAUUACGAAAA | -3.85 ± 0.48 | -2.7 ± 0.3
ACGCAGCAAUAUUACGACGC | 0.036 ± 0.062 | 0.169 ± 0.082
AUACAGCAAUAUUACGAAUU | -2.71 ± 0.15 | -1.16 ± 0.14
UGACAGCAAUAUUACGUGGG | -3.76 ± 0.14 | -0.757 ± 0.081
CGAAAGCAAUAUUACGGUAG | -0.561 ± 0.065 | -0.437 ± 0.085
AAUGAGCAAUAUUACGAAUC | – | -1.74 ± 0.3
GUAUAGCAAUAUUACGACAA | -0.741 ± 0.27 | -1.34 ± 0.3
CGGGAGCAAUAUUACGGGAU | -3.37 ± 0.34 | –
GAUCAGCAAUAUUACGGUCG | -1.42 ± 0.092 | -0.484 ± 0.088
GAUGAGCAAUAUUACGACAA | -2.95 ± 0.31 | –
AUUAAGCAAUAUUACGUACA | -1.2 ± 0.1 | -0.1 ± 0.13
ACCAAGCAAUAUUACGGACC | -0.368 ± 0.098 | -0.214 ± 0.12
ACACAGCAAUAUUACGGCGC | -0.533 ± 0.067 | 0.309 ± 0.079
GCACAGCAAUAUUACGGCCU | -1.66 ± 0.11 | -0.461 ± 0.12
CGUAAGCAAUAUUACGAGAU | -4.04 ± 0.47 | -2.55 ± 0.41
GACGAGCAAUAUUACGGAUU | – | -2.03 ± 0.19
UCAUAGCAAUAUUACGUUAA | – | -3.44 ± 0.42
AAGGAGCAAUAUUACGAGAC | -2.03 ± 0.44 | –
GGUGAGCAAUAUUACGAGGA | -1.95 ± 0.39 | -2.02 ± 0.33

Sequence | self-splicing fitness (ln) (30 °C) | self-splicing fitness (ln) (37 °C)
AGGUAGCAAUAUUACGCUAC | -3.78 ± 0.047 | -2.71 ± 0.059
AUUAAGCAAUAUUACGAGCC | – | -1.69 ± 0.28
CGACAGCAAUAUUACGAGCA | -2.11 ± 0.18 | -1.26 ± 0.16
CUGCAGCAAUAUUACGACAC | -3.35 ± 0.23 | -3.61 ± 0.33
CUCAAGCAAUAUUACGAAUC | – | -1.91 ± 0.3
ACCCAGCAAUAUUACGAUGG | -2.94 ± 0.095 | -1.26 ± 0.085
UACCAGCAAUAUUACGUGUA | -2.59 ± 0.12 | -1.67 ± 0.1
GUCGAGCAAUAUUACGUGAG | -0.54 ± 0.076 | -0.266 ± 0.096
GCUCAGCAAUAUUACGUUUC | -0.455 ± 0.065 | -0.0579 ± 0.091
GACAAGCAAUAUUACGGCAA | -0.787 ± 0.075 | -0.384 ± 0.074
UGUCAGCAAUAUUACGUACA | -0.576 ± 0.11 | -0.0735 ± 0.13
GGCUAGCAAUAUUACGCAGU | -1.78 ± 0.34 | –
GGUUAGCAAUAUUACGACGC | 0.551 ± 0.17 | 0.289 ± 0.16
GAAGAGCAAUAUUACGCUAA | – | -2.22 ± 0.3
GGUAAGCAAUAUUACGCGGU | -3.85 ± 0.31 | -0.403 ± 0.15
AGACAGCAAUAUUACGGUCA | -0.457 ± 0.063 | -0.0714 ± 0.074
UUCCAGCAAUAUUACGUAUU | -3.21 ± 0.18 | -1.7 ± 0.19
UUAGAGCAAUAUUACGUUUU | -3.39 ± 0.32 | -2.3 ± 0.27
CCGGAGCAAUAUUACGACAG | -0.593 ± 0.13 | -0.569 ± 0.14
GAAGAGCAAUAUUACGGAUG | -3.4 ± 0.45 | -1.09 ± 0.31
GUGUAGCAAUAUUACGUACU | -1.52 ± 0.095 | -1.19 ± 0.14

Sequence | self-splicing fitness (ln) (30 °C) | self-splicing fitness (ln) (37 °C)
CCGCAGCAAUAUUACGUAUC | -4.05 ± 0.28 | -1.91 ± 0.2
GUACAGCAAUAUUACGAUUC | -0.318 ± 0.075 | -0.0725 ± 0.11
CGUGAGCAAUAUUACGACCU | -1.34 ± 0.28 | -1.17 ± 0.3
UCUUAGCAAUAUUACGAGUG | -0.964 ± 0.065 | -0.162 ± 0.097
AUCUAGCAAUAUUACGAUGC | -1.74 ± 0.13 | -1.33 ± 0.16
GUUAAGCAAUAUUACGUGAC | -1.93 ± 0.24 | -2.56 ± 0.37
GGUGAGCAAUAUUACGCCAG | -2.86 ± 0.47 | –
AUAUAGCAAUAUUACGCCGG | -3.65 ± 0.37 | -0.796 ± 0.3
CCUAAGCAAUAUUACGUAGU | -1.3 ± 0.061 | -0.474 ± 0.083
GUCCAGCAAUAUUACGAGCU | – | -1.96 ± 0.31
CUGGAGCAAUAUUACGUUAA | -3.18 ± 0.37 | -2.05 ± 0.24
CCAGAGCAAUAUUACGUACU | – | -1.97 ± 0.18
ACGAAGCAAUAUUACGCCUA | -1.93 ± 0.15 | -1.1 ± 0.12
UCCAAGCAAUAUUACGAGAC | – | -2.23 ± 0.29
CCUGAGCAAUAUUACGGAGA | -2.39 ± 0.25 | -3.09 ± 0.35
GCGAAGCAAUAUUACGUCCG | -1.24 ± 0.14 | -0.577 ± 0.2
AUACAGCAAUAUUACGAGUC | -3.23 ± 0.19 | -2.57 ± 0.19
GUUAAGCAAUAUUACGACUA | -0.731 ± 0.13 | -0.438 ± 0.11
GGCUAGCAAUAUUACGGAUU | -0.369 ± 0.13 | 0.405 ± 0.16
ACCCAGCAAUAUUACGAGUU | -1.14 ± 0.048 | -0.101 ± 0.061
GUUUAGCAAUAUUACGAUAC | -1.44 ± 0.18 | -0.147 ± 0.28

Sequence | self-splicing fitness (ln) (30 °C) | self-splicing fitness (ln) (37 °C)
AGCGAGCAAUAUUACGGAGA | -2.52 ± 0.26 | -2.14 ± 0.3
AAGCAGCAAUAUUACGUCGG | -2.24 ± 0.1 | -1.7 ± 0.17
AAAUAGCAAUAUUACGUAGU | -3.11 ± 0.099 | -1.79 ± 0.095
GACCAGCAAUAUUACGACUC | -0.264 ± 0.06 | 0.162 ± 0.077
CUGUAGCAAUAUUACGGAGG | -4.1 ± 0.27 | -2.64 ± 0.26
UUAAAGCAAUAUUACGGUUA | 0.31 ± 0.069 | -0.0607 ± 0.072
CCGUAGCAAUAUUACGACUG | -0.0597 ± 0.12 | -0.95 ± 0.15
AAGAAGCAAUAUUACGAUAG | -3.6 ± 0.28 | -1.87 ± 0.2
CAAAAGCAAUAUUACGAUUA | -0.53 ± 0.084 | -0.187 ± 0.087
ACAGAGCAAUAUUACGCUAC | -3.21 ± 0.43 | –
UGUGAGCAAUAUUACGGCUA | -0.645 ± 0.13 | -0.508 ± 0.15
CUGAAGCAAUAUUACGCGUA | -4.36 ± 0.36 | -1.98 ± 0.26
UCCGAGCAAUAUUACGGGGC | -4.28 ± 0.23 | -2.8 ± 0.17
AAGCAGCAAUAUUACGUACC | -1.17 ± 0.19 | -0.569 ± 0.22
UGAGAGCAAUAUUACGUGCU | -2.06 ± 0.21 | –
AGGCAGCAAUAUUACGCUUG | -2.81 ± 0.17 | -2.12 ± 0.23
GGGAAGCAAUAUUACGCCAG | -3.13 ± 0.36 | –
GCUUAGCAAUAUUACGCGUA | -1.39 ± 0.16 | -1.71 ± 0.17
